Key:
[1] = test system: human epidermal keratinocytes; test: Colony formation assay using human epidermal keratinocytes; type: cell-based; settings: Table 1
Source text: To test whether COL17A1-mediated SCD maintains clonal proliferation of epidermal stem cell clones, the present inventors used a colony formation assay, which is an in vitro assay said to be the gold standard for assessing the self-renewal ability of epidermal stem cells, including cells in the tail epidermis.

COL17A1 = COL17A1 expression in human epidermal keratinocytes by high content imaging (HCS); type: cell-based; settings: Table 1; human epidermal keratinocytes, 48 hours after addition of reagents, fluorescence intensity per cell
Description: The present inventors further searched for substances that induce or maintain the expression of COL17A1. Human epidermal keratinocytes were seeded in 384-well plates, cultured for 48 hours after addition of reagents, immunostained with an anti-COL17A1 antibody and a fluorescently labeled secondary antibody, and then the fluorescence intensity per cell was detected using a high content imaging system (HCS: High Content Screening). In addition to cell counting with DAPI, the expression level of COL17A1 was quantified.

B1: Epidermal Growth Factor (EGF): growth factor (protein, UniProt P01133 23-1207, looked up)
Pro-epidermal growth factor: PQHWSCPEGTLAGNGNSTCVGPAPFLIFSHGNSIFRIDTEGTNYEQLVVDAGVSVIMDFHYNEKRIYWVDLERQLLQRVFLNGSRQERVCNIEKNVSGMAINWINEEVIWSNQQEGIITVTDMKGNNSHILLSALKYPANVAVDPVERFIFWSSEVAGSLYRADLDGVGVKALLETSEKITAVSLDVLDKRLFWIQYNREGSNSLICSCDYDGGSVHISKHPTQHNLFAMSLFGDRIFYSTWKMKTIWIANKHTGKDMVRINLHSSFVPLGELKVVHPLAQPKAEDDTWEPEQKLCKLRKGNCSSTVCGQDLQSHLCMCAEGYALSRDRKYCEDVNECAFWNHGCTLGCKNTPGSYYCTCPVGFVLLPDGKRCHQLVSCPRNVSECSHDCVLTSEGPLCFCPEGSVLERDGKTCSGCSSPDNGGCSQLCVPLSPVSWECDCFPGYDLQLDEKSCAASGPQPFLLFANSQDIRHMHFDGTDYGTLLSQQMGMVYALDHDPVENKIYFAHTALKWIERANMDGSQRERLIEEGVDVPEGLAVDWIGRRFYWTDRGKSLIGRSDLNGKRSKIITKENISQPRGIAVHPMAKRLFWTDTGINPRIESSSLQGLGRLVIASSDLIWPSGITIDFLTDKLYWCDAKQSVIEMANLDGSKRRRLTQNDVGHPFAVAVFEDYVWFSDWAMPSVMRVNKRTGKDRVRLQGSMLKPSSLVVVHPLAKPGADPCLYQNGGCEHICKKRLGTAWCSCREGFMKASDGKTCLALDGHQLLAGGEVDLKNQVTPLDILSKTRVSEDNITESQHMLVAEIMVSDQDDCAPVGCSMYARCISEGEDATCQCLKGFAGDGKLCSDIDECEMGVPVCPPASSKCINTEGGYVCRCSEGYQGDGIHCLDIDECQLGEHSCGENASCTNTEGGYTCMCAGRLSEPGLICPDSTPPPHLREDDHHYSVRNSDSECPLSHDGYCLHDGVCMYIEALDKYACNCVVGYIGERCQYRDLKWWELRHAGHGQQQKVIVVAVCVVVLVMLLLLSLWGAHYYRTQKLLSKNPKNPYEESSRDVRSRRPADTEDGMSSCPQPWFVVIKEHQDLKNGGQPVAGEDGQAADGSMQPTSWRQEPQLCGMGTEQGCWIPVSSDKGSCPQVMERSFHMPSYGTQTLEGGVEKPHSLLSANPLWQQRALDPPHQMELTQ
modifications: Pro-epidermal growth factor
Colony area (control ratio) [1]: ⊚⊚ (Two double circles (⊚⊚) in the control ratio of the colony number or colony area indicates an increase of 1.2-fold or more) | Colony number (control ratio) [1]: ⊚⊚ (Two double circles (⊚⊚) in the control ratio of the colony number or colony area indicates an increase of 1.2-fold or more) | COL17A1 expression level (control ratio) (COL17A1): ⊚ (one double circle (⊚) represents a 1.2-fold or greater increase)
